Assay results: patent US20220409620A1, “REDUCING IMMUNOGENICITY TO PEGLOTICASE” (Horizon Pharma Rheumatology LLC, priority 2016, published 2022)
Read-outs that look alike come from different tables or passages of the source.

How the values were obtained:
[1] = MTX polyglutamates 1 to 5 in red blood cells, MIRROR OL; format: in vivo, human; conditions: during the treatment course; FIG. 2
Experimental: Blood samples were collected prior to pegloticase infusion on Day 1 and at the Weeks 4, 8, 22 and 36 Visits or at Day 1 and weeks 14, 24, and 36 visits during the Pegloticase+IMM for MTX Polyglutamate analysis for the open-label and randomized studies, respectively.
Methods: In the MIRROR OL trial, MTX (15 mg/week) was given orally 4 weeks prior to the first pegloticase dose and continued weekly, in combination with pegloticase 8 mg given intravenously every 2 weeks, for a treatment duration of up to 52 weeks. Pre-infusion samples were collected to measure MTX-PGs 1 to 5 in red blood cells at day 1, week 4, 8, 22, 24 and 36. […] Pegloticase concentrations in serum was measured using a validated enzymatic/fluorescence assay. The limit of quantification is 0.6 μg/mL. Anti-pegloticase/PEG IgG antibodies (ADA) were measured using a validated enzyme linked immunosorbent assay (ELISA). The analysis of MTX Polyglutamates was conducted by Exagen. The impact of MTX on pegloticase PK was evaluated by two methods: (1) Comparing pegloticase exposures (median Cmax and Cmin across visits) with MTX from the MIRROR OL trial to the observed levels in historical monotherapy Phase 3 studies (C0405 and C0406) (Lipsky et al., Arthritis Res Ther 16(2), 2014; Sundy et al., JAMA 306(7), 2011). […]

[2] = system: patients with refractory chronic gout; conditions: cited from earlier work; for patients maintaining a response to pegloticase: another study
[3] = system: patients with refractory chronic gout; assay: Prior Phase 3 / pre-marketing pegloticase monotherapy trials (C0405 and C0406): response, infusion reactions, antibodies, PK; format: in vivo, human
Experimental: Improvements were more rapid in patients who received pegloticase 8 mg every 2 weeks compared to every 4 weeks and met the outcomes data of complete resolution of at least 1 tophus with no new or progressive tophi as assessed by blinded assessment of digital photographs of target tophi.
During the second 3 months of treatment, a lower proportion of pegloticase-treated patients experienced flares than patients receiving placebo. The incidence of flares during this period was lowest in the group receiving pegloticase 8 mg every 2 weeks than in the group who received pegloticase 8 mg every 4 weeks, as was the incidence of infusion-related reactions (26% with biweekly dosing vs. 40% with the every-4-week dosing regimen). Both infusion reactions (IRs) and gout flares were least common in patients with sustained urate-lowering responses to treatment and those who received bi-weekly treatment. In most pegloticase-treated patients with IRs, a loss of response to pegloticase (return to SUA >6 mg/dL) preceded the time of the first IR ( 20/21; 95%).
A relationship between the loss of urate-lowering efficacy, incidence of IRs, and high-titer antibody formation was identified in a post-hoc analysis of the pooled data from the Phase 3 studies. […] In one study, 69 (41%) of 169 patients receiving pegloticase developed high titer anti-pegloticase antibodies and subsequently lost response to the drug. In a second study, only 1 of 52 participants with high antibody titers maintained a response to pegloticase (serum urate <6 mg/dL). In addition, 60% participants with high titers developed IR. Anti-pegloticase antibodies were largely directed to the polyethylene glycol (PEG) portion of the molecule and altered the pharmacokinetic clearance of pegloticase, resulting in inhibition of SUA lowering activity. […] In addition, 31 of 52 (60%) patients with titers exceeding 1:2430 developed IRs. […] By preventing the formation of anti-pegloticase antibodies, a tolerizing dose regimen should prevent loss of response to the drug and decrease the incidence of IRs associated with it.
An AE that was not an unexpected AE was an infusion reaction and rarely anaphylaxis. Safety assessments in this study include an evaluation of the frequency and severity of IRs and anaphylaxis. During pre-marketing controlled clinical trials, infusion reactions were reported in 26% of patients treated with pegloticase 8 mg every 2 weeks. During pre-marketing controlled clinical trials, anaphylaxis was reported with a frequency of 6.5% of patients treated with pegloticase. For the purposes of this study, these events shall be defined as follows: […]
Methods: In the MIRROR OL trial, MTX (15 mg/week) was given orally 4 weeks prior to the first pegloticase dose and continued weekly, in combination with pegloticase 8 mg given intravenously every 2 weeks, for a treatment duration of up to 52 weeks. Pre-infusion samples were collected to measure MTX-PGs 1 to 5 in red blood cells at day 1, week 4, 8, 22, 24 and 36. […] Pegloticase concentrations in serum was measured using a validated enzymatic/fluorescence assay. The limit of quantification is 0.6 μg/mL. Anti-pegloticase/PEG IgG antibodies (ADA) were measured using a validated enzyme linked immunosorbent assay (ELISA). The analysis of MTX Polyglutamates was conducted by Exagen. The impact of MTX on pegloticase PK was evaluated by two methods: (1) Comparing pegloticase exposures (median Cmax and Cmin across visits) with MTX from the MIRROR OL trial to the observed levels in historical monotherapy Phase 3 studies (C0405 and C0406) (Lipsky et al., Arthritis Res Ther 16(2), 2014; Sundy et al., JAMA 306(7), 2011). Overlaying observed pegloticase concentrations with MTX against the 90% prediction band of pegloticase concentrations following monotherapy based on the population PK model from the Phase 3 data (Yue et al., ASCPT. Atlanta, 2010).

[4] = system: patients with refractory chronic gout; conditions: Phase 2 program; cited from earlier work

CN(Cc1cnc2nc(N)nc(N)c2n1)c1ccc(C(=O)N[C@@H](CCC(=O)O)C(=O)O)cc1 [MTX, methotrexate]
Concentrations of MTX-PGs [1]: maintained

pegloticase
Non-responders ([2]; C0405 and C0406): 49/85 | patients maintaining a response to pegloticase ([2]; antibody titer exceeding 1:2430 at any time during treatment, 7 of 65): 10.8% | patients maintaining a response to pegloticase ([2]; never had an antibody titer above 1:2430, 58/65): 89.2% | Responders (sUA <6 mg/dL for at least 80% of the time during month 6) ([2]; historical Phase 3 monotherapy trials C0405 and C0406, 36/85): 42% | response rate during Month 6 ([2]; pegloticase 8 mg every 2 weeks, phase 3 studies): 43% | proportion of responders during Month 6 ([2]; phase 3 studies): 43.5% | incidence of infusion-related reactions ([2]; pooled Phase 3, 8 mg biweekly dosing): 26% | incidence of infusion-related reactions ([2]; pooled Phase 3, 8 mg every-4-week dosing regimen): 40% | pegloticase-treated patients with IRs in whom loss of response (return to SUA >6 mg/dL) preceded the first IR ([2]; pooled Phase 3, 20/21): 95% | infusion reactions reported ([2]; pre-marketing controlled clinical trials, 8 mg every 2 weeks): 26% | anaphylaxis frequency ([2]; pre-marketing controlled clinical trials): 6.5% | participants with high antibody titers who maintained a response (serum urate <6 mg/dL) ([2]; second study): 1 of 52 participants | participants with high titers who developed IR ([2]; second study): 60% | patients who developed IRs ([2]; titers exceeding 1:2430, 31 of 52): 60% | patients with Cmin below quantitation limit ([2]; without MTX, 63/82): 77% | pegloticase overall Cmin, median ([2]; without MTX, historical monotherapy, BQL = below quantitation limit of 0.6 μg/mL): BQL | pegloticase Cmax, median ([2]; without MTX, historical monotherapy): 1510 ng/mL | Cmax, Median (Q1, Q3) ([3]; BQL: below 0.6 μg/mL): 1.51 (BQL, 2.48) μg/mL | Cmin, Median (Q1, Q3) ([3]; BQL: below 0.6 μg/mL): BQL (BQL, BQL) | Cmax BQL, % ([3]; Quantitation Limit 0.6 μg/mL): 29% | Cmax BQL, n/N ([3]; Quantitation Limit 0.6 μg/mL): 25/85 | Cmin BQL, % ([3]; Quantitation Limit 0.6 μg/mL): 77% | Cmin BQL, n/N ([3]; Quantitation Limit 0.6 μg/mL): 63/82 | dose-response plateau dose [4]: 12 mg | minimally effective dose [4]: 4 mg | safe and optimally effective dose [4]: 8 mg
